These sequences were tested against HLA-A*02:01 (assay: IEDB peptide-MHC binding, cellular MHC/competitive/fluorescence; ≥ and ≤ were set here for values at or beyond the usual limits of such assays). Details: source organism: Influenza A virus.

Work on ITFMQALQLL yielded an IC50 of 7.71 µM.

Same assay, conditions: source organism: Mammarenavirus whitewaterense

For LQFIVFLLL, the IC50 was 51.6 µM.

Same assay, conditions: source organism: Vaccinia virus WR

First: PTNKLQAAV
Second: GINQEDGIII
The IC50 of the first is lower: 6.43 µM for the first, at least 70 µM for the second.

Going from KAVIEYDDI to KIKHKGMSFV, the IC50 falls from 37.6 µM to 15.8 µM (2.4-fold). The second is the more potent here.

Going from PVDDGPDDET to ELMPIRTDT, the IC50 rises from 15.2 µM to at least 70 µM. The first is the more potent here.

EQTSVFSAT and QQKCDMPSL are within 1.5-fold of each other in IC50: 16.9 µM for the first, 25 µM for the second.

First: HIDYNEDMIT
Second: ITTMDGDKL
The IC50 of the first is 3.4-fold higher: 51.4 µM for the first, 15 µM for the second. The second is the more potent here.

FTVTNKEGV and VISPMGKLT are within 1.5-fold of each other in IC50: 10.3 µM for the first, 8.49 µM for the second.

First: ATYHIIIVA
Second: KTKYYKFDYI
The IC50 of the first is 8-fold lower: 6.42 µM for the first, 51.5 µM for the second.

First: TTSSREERVL
Second: LISMYCSKT
The IC50 of the first is higher: at least 70 µM for the first, 12.5 µM for the second. The second is the more potent here.

Compared with LIKLIEPVNA, SMRLLHCVT is higher in IC50: 55.6 µM for the first, at least 70 µM for the second.

First: AVNEEWLTA
Second: LTVSFIDET
The IC50 of the first is lower: 17.3 µM for the first, at least 70 µM for the second. The first is the more potent here.

PTELKETLL and PTMKIFYKHI cannot be ordered by IC50: at least 70 µM for the first, at least 70 µM for the second.

Going from SVNKFKFGAA to YVSTGESSI, the IC50 falls from at least 70 µM to 11.4 µM.

GIVLSNTSTA and ELEPSLATFI are within 1.5-fold of each other in IC50: 13.1 µM for the first, 11.2 µM for the second.

Going from ILRSIEGEL to SIRIKIDKL, the IC50 rises from 8.99 µM to 16.5 µM (1.8-fold).

Compared with NQCMSANEAA, ATVMNNLSEL is 6.1-fold lower in IC50: 67.6 µM for the first, 11 µM for the second.

First: YVGSYASNGI
Second: YVTLNASQYA
The IC50 of the first is 1.5-fold lower: 15.2 µM for the first, 23.1 µM for the second.

IIYNANKLI and KQTFGSLPA are within 1.5-fold of each other in IC50: 17 µM for the first, 18.9 µM for the second.

Going from IIRYPVKRI to DIYYNGNKML, the IC50 rises from 10.1 µM to 19.6 µM (1.9-fold).

YIQETIRSDT and YIIRRSGCRI are within 1.5-fold of each other in IC50: 39.3 µM for the first, 43.1 µM for the second.

DLENLYAVT and DMLNIMNKL are within 1.5-fold of each other in IC50: 6.55 µM for the first, 5.12 µM for the second.

TIDGVSKKNI and ETVSTIDGRI cannot be ordered by IC50: at least 70 µM for the first, at least 70 µM for the second.

IIRRSGCRI and SISKSNAKCI cannot be ordered by IC50: at least 70 µM for the first, at least 70 µM for the second.

NIVWEKKSL and HIHKILTREM are within 1.5-fold of each other in IC50: 10.9 µM for the first, 16.2 µM for the second.

CVDNHLGAT and FINKLNGAM are within 1.5-fold of each other in IC50: 52.1 µM for the first, 57.8 µM for the second.

PVNNNIVLHT and TVELMNLKEL are within 1.5-fold of each other in IC50: 35.8 µM for the first, 50.6 µM for the second.

SAKRITESIT and ETMPCVKKKA cannot be ordered by IC50: at least 70 µM for the first, at least 70 µM for the second.

Compared with PIVISKALET, IVLSNTSTA is 1.6-fold lower in IC50: 26.8 µM for the first, 16.9 µM for the second. The second is the more potent here.

FTNLLSKNT and LTDSLSSQMT are within 1.5-fold of each other in IC50: 13.1 µM for the first, 11.9 µM for the second.

Compared with GIRVKHSFSA, LLKDLFPKQT is higher in IC50: 6.87 µM for the first, at least 70 µM for the second.

Going from EQEIESLEAT to EQRSTAYEI, the IC50 falls from 42.7 µM to 8.92 µM (4.8-fold).

First: PVHDILSGL
Second: SIDRLSLNRT
The IC50 of the first is higher: at least 70 µM for the first, 5.1 µM for the second. The second is the more potent here.

Going from WTVYLIKLI to KLIIDREVVA, the IC50 rises from 7.52 µM to 15.8 µM (2.1-fold).

First: CMSANEAAIT
Second: ELTASGGKVL
The IC50 of the first is lower: 6.71 µM for the first, at least 70 µM for the second. The first is the more potent here.

Going from DISMSLYKDL to DLSKLSKDV, the IC50 falls from 9.88 µM to 6.36 µM (1.6-fold).

Going from IVLPNKVRI to IAMKVIQGI, the IC50 falls from 35.1 µM to 7.73 µM (4.5-fold).

Compared with QMNARGVKV, PVTEDDYKFL is 5.2-fold higher in IC50: 5.14 µM for the first, 26.7 µM for the second. The first is the more potent here.

TVTNLISETL and AVCNLASVA are within 1.5-fold of each other in IC50: 16.6 µM for the first, 17.8 µM for the second.

Going from TVSTIDGRIV to MQRISGSNIV, the IC50 falls from at least 70 µM to 13 µM. The second is the more potent here.

First: PVSTNGKIVM
Second: TIKISPGIA
The IC50 of the first is higher: at least 70 µM for the first, 37.4 µM for the second. The second is the more potent here.

Compared with SLSKRERQL, PIIFGESSI is 6-fold higher in IC50: 5.77 µM for the first, 34.7 µM for the second.

Going from EVFHCMDIL to PITIENALV, the IC50 rises from 12 µM to at least 70 µM.

SQLSVLSSIT and KVDVELFIKA are within 1.5-fold of each other in IC50: 11.5 µM for the first, 8 µM for the second.

Compared with RQSSCKMAL, PIKFIAEFL is 5.2-fold lower in IC50: 42.7 µM for the first, 8.24 µM for the second.

Compared with NIIMKTPGNT, LQKVLHVTDT is higher in IC50: 8.14 µM for the first, at least 70 µM for the second.

CIRISMVISL and ITVTVTFNPV are within 1.5-fold of each other in IC50: 6.22 µM for the first, 6.42 µM for the second.

ELVNLIQAKT and LVATDPDADA cannot be ordered by IC50: at least 70 µM for the first, at least 70 µM for the second.

Going from ELEEMVDKGT to NAKLTSTET, the IC50 falls from at least 70 µM to 8.67 µM. The second is the more potent here.

QQKKCKYCI and KIDKLRQIVA are within 1.5-fold of each other in IC50: 38.8 µM for the first, 32.4 µM for the second.

Compared with VVELEPSLAT, VQLVDAIDNI is lower in IC50: at least 70 µM for the first, 13.3 µM for the second.

AIIRQRNDEI and ALSDACKKIL are within 1.5-fold of each other in IC50: 17.4 µM for the first, 17.9 µM for the second.

Compared with ELQKFSFKIA, DVEDLLSYYV is lower in IC50: at least 70 µM for the first, 5.16 µM for the second. The second is the more potent here.

Compared with PAVVYSTCT, VIYPNFSKAM is 3.2-fold higher in IC50: 5.5 µM for the first, 17.8 µM for the second. The first is the more potent here.

Compared with PTRTLDTAI, EAVKDKNWTV is lower in IC50: at least 70 µM for the first, 14.8 µM for the second. The second is the more potent here.

Going from DQSIKIGDI to VTLNASQYA, the IC50 falls from at least 70 µM to 5.01 µM.

Going from EINNELELV to SINSATESDA, the IC50 rises from 8.27 µM to 32.7 µM (4-fold).

Going from TTTSEVVDM to ATDPDADAIA, the IC50 rises from 10 µM to at least 70 µM. The first is the more potent here.

First: TIQESFIRFT
Second: DIRTLLPIL
The IC50 of the first is higher: at least 70 µM for the first, 37.6 µM for the second.

TASGGKVLI and ELTASGGKV are within 1.5-fold of each other in IC50: 37.2 µM for the first, 49.8 µM for the second.

ELTTLSRHI and STSITVNEV are within 1.5-fold of each other in IC50: 18.6 µM for the first, 12.6 µM for the second.

Going from SQSERDNYIT to GVSDLISTEI, the IC50 falls from at least 70 µM to 41.8 µM.

ELFIKALSDA and VIFLISVIV are within 1.5-fold of each other in IC50: 10.9 µM for the first, 13.6 µM for the second.

First: MVSIDEVAST
Second: AIMFKDDNI
The IC50 of the first is 3.8-fold higher: 36.8 µM for the first, 9.74 µM for the second. The second is the more potent here.

Compared with IAHLLEHLLI, IVVELEPSLA is 1.7-fold lower in IC50: 15.7 µM for the first, 9.09 µM for the second. The second is the more potent here.

Going from LTASGGKVLI to SVFYRGAENI, the IC50 falls from at least 70 µM to 20.8 µM. The second is the more potent here.

Source: the Immune Epitope Database (IEDB)
